Values belong to the molecule of their own block, whether it stands above or below them.
Columns and labels:
[1] = system: β2AR; assay: β2AR sequestration in HEK-293 cells by 125I-Cyanopindolol binding; assay type: cell-based; conditions: 1 μM isoproterenol, 0-30 min; wortmannin 100 nM 15 min before, or co-transfected ΔPI3Kγ
Experimental: Determination of β2AR Sequestration in HEK-293 Cells by ^125I-Cyanopindolol (CYP) Binding—β2AR sequestration was performed as previously described. Briefly, HEK-293 cells were plated at a density of 2.5×10^6 cells/dish and transfected the following day with plasmids containing either the β2AR (150-250 ng), β2AR (250 ng) and HEAT domain (4 μg), PI3Kγ (4.0 μg) or ΔPI3Kγ (4.0 μg) cDNAs. Twelve hours after transfection cells were split into six well Falcon plates at a density of 750,000 cells/well. […] To determine the amount of internalized receptor, 100 μl aliquots of whole cells were added to 150 μl of binding buffer (75 mM Tris-HCl, 10 mM MgCl2, 5 mM EDTA (pH 7.5)). Total binding was determined in the presence of 175 pM ^125I-CYP alone, the number of internalized receptors were determined by using 175 pM ^125I-CYP plus 100 nM CGP12177, and non-specific binding was determined using 175 pM ^125I-CYP plus 1 μM propranolol. Sequestration was calculated as the ratio of (specific receptor binding of ^125I-CYP in the presence of CGP12177)/(specific receptor binding of ^125I-CYP in the absence of CGP12177).

[2] = biological target: T1, β2AR (Homo sapiens, UniProt P07550); assay: Agonist-induced β2AR phosphorylation, 32P metabolic labeling; assay type: cell-based; conditions: 10 μM isoproterenol 5 min; ΔPI3Kγ co-transfected
T1 construct: expressed in transfected cells; host or cells: HEK-293
Experimental: β2AR Phosphorylation—β2AR phosphorylation was performed in intact cells as previously described. Cells were transfected with plasmids containing the FLAG β2AR (2 μg) and vector DNA (2.5 μg), the FLAG β2AR (2 μg) and PI3Kγ (2.5 μg), or the β2AR (2 μg) and ΔPI3Kγ (2.5 μg). 24 hr after transfection, cells were washed and metabolically labeled for 1 hr with medium containing 100 μCi of ^32P/ml. […] Following centrifugation at 38000×g for 20 min at 4° C., the supernatants were processed for immunoprecipitation of the FLAG-β2AR as described above. Phosphorylated receptors were resolved by 10% SDS-polyacrylamide gel electrophoresis and dried gels subjected to autoradiography.
To directly test the effect of API3Kγ expression on receptor phosphorylation, ^32P; metabolic labeling was performed in HEK-293 cells transfected with plasmids containing FLAG β2AR and either the PI3Kγ or ΔPI3Kγ cDNAs. […] Thus, the effect of overexpression of ΔPI3Kγ on β2AR sequestration is not related to processes that are involved with β2AR phosphorylation or β-arrestin2 recruitment. In FIG. 6D, Agonist (ISO, 5 min) promoted β2AR phosphorylation in transfected cells after ^32Pi metabolic labeling for 1 hour prior to stimulation (upper panel). Lower panel, immunoblot for HA showing equal levels of expression of HA-PI3Kγ and HA-ΔPIβKγ. + represents HA-PI3Kγ control.

[3] = system: β-arrestin2-GFP; assay: β-arrestin2-GFP recruitment to the membrane by confocal microscopy; assay type: cell-based; conditions: isoproterenol; co-expressed mutant protein
Experimental: Confocal Microscopy—Confocal microscopy was performed as previously described. […] Cells were split into 35 mm^2 dishes with glass bottoms for observation using a Zeiss LSM-510 confocal microscope. […] For analyses of the HEAT domain, HEK 293 cells were transfected with the plasmids containing cDNAs encoding either the β2AR-YFP (2 μg) or β2AR-YFP (2 μg) and HEAT domain (4 μg). Cells were plated onto glass bottom dishes for observation in the confocal microscope. […] Cells were permeablized with 0.1% Triton X-100 in phosphate-buffered saline for 20 min, incubated in 1% BSA in phosphate-buffered saline for 1 hr. Cells were washed with 1× phosphate-buffered saline and incubated with anti-HA or anti-FLAG monoclonal antibody (1:250) with 1% BSA in 1× phosphate-buffered saline for 1 hr. Cells were washed and incubated with goat anti-mouse IgG conjugated with Texas Red (1:500) (Molecular Probes) for 1 hr. Samples were visualized using single sequential line excitation filters at 488 and 568 nm and emission filter sets at 505-550 nm for GFP detection and 585 for Texas Red detection.
To exclude these possibilities cells were co-transfected with plasmids containing FLAG β2AR, β-arrestin2-GFP and either PI3Kγ or ΔPI3Kγ cDNAs, and were monitored for the recruitment of β-arrestin2-GFP using confocal microscopy. […] Marked redistribution of β-arrestin2-GFP to the membrane occurred within 2.5 minutes. […]

[4] = system: Gβγ subunits of G-protein; assay: Pull-down with purified Gβγ; assay type: binding; conditions: GST-HEAT beads with purified Gβγ
Experimental: Subsequently, 10 μg of purified Gβγ was added to either βARK1 immobilized beads (5 pg), or the GST-HEAT fusion protein beads (5 μg), and gently rocked for 45 min at room temperature. Beads were spun down, washed in binding buffer X2 and resolved by gel electrophoresis. The presence of Gβγ was detected by immunoblotting with an antibody directed against the Gβ subunit. Purified Gβγ and βARK1 were gifts from Dr. Robert Lefkowitz.
Purified βARK1 and GST-HEAT fusion protein immobilized on sepharose beads were incubated with purified Gβγ. The beads were washed and recovered proteins were analyzed by SDS-PAGE followed by immunoblotting with a Gβ polyclonal antibody. […] Purified Gβγ was loaded as a positive control.

[5] = biological target: T2, βARK1 (Bos taurus, UniProt P21146); assay: Co-immunoprecipitation and GST pull-down with purified βARK1; assay type: binding; conditions: sepharose beads, versus GST alone
T2 construct: gift from Dr. Robert Lefkowitz
T2 sequence (P21146 1-689): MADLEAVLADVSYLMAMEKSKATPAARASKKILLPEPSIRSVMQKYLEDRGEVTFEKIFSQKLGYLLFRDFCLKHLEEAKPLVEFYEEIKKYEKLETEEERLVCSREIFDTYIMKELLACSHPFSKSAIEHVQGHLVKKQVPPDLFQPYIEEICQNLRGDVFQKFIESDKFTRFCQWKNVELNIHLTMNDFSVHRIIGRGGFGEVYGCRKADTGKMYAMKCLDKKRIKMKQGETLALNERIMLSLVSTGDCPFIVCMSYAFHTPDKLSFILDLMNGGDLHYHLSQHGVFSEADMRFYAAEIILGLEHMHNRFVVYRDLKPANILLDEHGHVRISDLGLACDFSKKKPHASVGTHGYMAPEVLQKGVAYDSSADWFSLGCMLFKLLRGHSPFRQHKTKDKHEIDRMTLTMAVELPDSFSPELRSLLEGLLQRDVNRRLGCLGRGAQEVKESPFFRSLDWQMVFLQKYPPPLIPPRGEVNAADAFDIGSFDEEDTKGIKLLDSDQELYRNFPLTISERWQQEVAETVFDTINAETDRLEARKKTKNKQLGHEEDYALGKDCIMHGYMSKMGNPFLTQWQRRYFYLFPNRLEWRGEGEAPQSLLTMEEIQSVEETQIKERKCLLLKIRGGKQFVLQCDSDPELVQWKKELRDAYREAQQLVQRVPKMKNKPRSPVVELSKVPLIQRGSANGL
Experimental: GST Fusion Protein Expression and Pull-down Experiments—Plasmid DNAs were transformed in Escherichia coli BL21 cells. Overnight cultures were grown in LB medium supplemented with ampicillin (100 μg/ml), diluted to an A600 of 0.2 in the same medium and grown for another 1 hr at 37° C. Cultured cells were then induced with 0.1 mM isopropyl-1-thio-β-D-galactopyranoside for 2 hr. Cell were then pelleted, washed once with 1× phosphate-buffered saline and resuspended in 1× phosphate-buffered saline containing 1 mM phenylmethylsulfonyl fluoride, 2 mg/ml lysozyme and incubated for 15 min on ice. Cells were lysed by adding Triton X-100 1%. Solublized cells were incubated with DNase (300 units) for 15 min on ice and centrifuged at 13,000 rpm for 10 min.
Glutathione-Sepharose beads were added to the supernatant and gently agitated at 4° C. for 2 hr. Beads were washed three times with ice cold 1×PBS containing 1% Triton X-100 followed by three washes with cold PBS without detergent. Protein concentration was determined using a DC protein assay kit (Bio Rad), and the integrity of the fusion protein was analyzed by SDS-polyacrylamide gel electrophoresis and Coomassie staining.
The beads were spun and washed three times with binding buffer followed by three washes with binding buffer without detergent. The beads were resuspended in SDS gel loading buffer and resolved by gel electrophoresis, immunblotting and detection was carried out described later.
FLAG-HEAT and PI3KΔHEAT proteins were immunoprecipitated from cell extracts using monoclonal FLAG and HA antibodies respectively, fractionated by SDS-PAGE and analyzed by immunoblotting with βARK1 monoclonal antibody. […] Levels of expression of HEAT and PI3KΔHEAT proteins were similar (FIG. 8B, lower panel).
To investigate whether there was a direct physical interaction between the HEAT domain of PI3K and βARK1, GST-HEAT fusion protein containing 535-732 amino acid residues of PI3Kγ was produced, which including the entire HEAT domain and flanking upstream 10 amino acids and downstream 7 amino acids. […]

level of agonist-induced receptor phosphorylation [2]: not affected
recruitment of β-arrestin2-GFP to the receptor/membrane after agonist [3]: prompt recruitment
B1: ΔPI3Kγ: HA tagged PI3 Kp110γ mutant, Δ942-981, deletion in ATP binding site; catalytically inactive (protein)
chain: MELENYKQPVVLREDNCRRRRRMKPRSAASLSSMELIPIEFVLPTSQRKCKSPETALLHVAGHGNVEQMKAQVWLRALETSVAADFYHRLGPHHFLLLYQKKGQWYEIYDKYQVVQTLDCLRYWKATHRSPGQIHLVQRHPPSEESQAFQRQLTALIGYDVTDVSNVHDDELEFTRRGLVTPRMAEVASRDPKLYAMHPWVTSKPLPEYLWKKIANNCIFIVIHRSTTSQTIKVSPDDTPGAILQSFFTKMAKKKSLMDIPESQSEQDFVLRVCGRDEYLVGETPIKNFQWVRHCLKNGEEIHVVLDTPPDPALDEVRKEEWPLVDDCTGVTGYHEQLTIHGKDHESVFTVSLWDCDRKFRVKIRGIDIPVLPRNTDLTVFVEANIQHGQQVLCQRRTSPKPFTEEVLWNVWLEFSIKIKDLPKGALLNLQIYCGKAPALSSKASAESPSSESKGKVRLLYYVNLLLIDHRFLLRRGEYVLHMWQISGKGEDQGSFNADKLTSATNPDKENSMSISILLDNYCHPIALPKHQPTPDPEGDRVRAEMPNQLRKQLEAIIATDPLNPLTAEDKELLWHFRYESLKHPKAYPKLFSSVKWGQQEIVAKTYQLLARREVWDQSALDVGLTMQLLDCNFSDENVRAIAVQKLESLEDDDVLHYLLQLVQAVKFEPYHDSALARFLLKRGLRNKRIGHFLFWFLRSEIAQSRHYQQRFAVILEAYLRGCGTAMLHDFTQQVQVIEMLQKVTLDIKSLSAEKYDVSSQVISQLKQKLENLQNSQLPESFRVPYDPGLKAGALAIEKCKVMASKKKPLWLEFKCADPTALSNETIGIIFKHGDDLRQDMLILQILRIMESIWETESLDLCLLPYGCISTGDKIGMIEIVKDATTIAKIQQSTVGNTGAFKDEVLNHWLKEKSPTEEKFQAAVERFVYSCAGYCVATFVLGIGDRVPFVLTPDFLFVMGTSGKKTSPHFQKFQDICVKAYLALRHHTNLLIIILFSMMLMTGMPQLTSKEDIEYIRDALTVGKNEEDAKKYFLDQIEVCRDKGWTVQFNWFLHLVLGIKQGEKHSAYPYDVPDYA
rate of β2AR sequestration [1]: significant attenuation

binding of purified βARK1 to immobilized fusion protein [5]: bound specifically
B2: GST-HEAT: GST fusion protein containing 535-732 amino acid residues of PI3Kγ, including the entire HEAT domain (protein)
chain: HPIALPKHQPTPDDRVRAEMPNQLRKQLEAIIATDTAEDKELLWHFRYESLKHPKAYPKLFSSVKWGQQEIVAKTYQLLARREVWDQSALDVGLTMQLLDCNFSDENVRAIAVQKLESLEDDDVLHYLLQLVQAVKFEPYHDSALARFLLKRGLRNKRIGHFLFWFLRSEIAQSRHYQQRFAVILEAYLRGCGTA
modifications: left off: a dimerising Fc or GST
notes: GST fusion protein containing 535-732 amino acid residues of PI3Kγ, including the entire HEAT domain
association of Gβγ [4]: no association
